Test results reported in paper PMC8568338 (Cell reports, 2021).
Like-named read-outs stand apart in the source and are kept apart here.

Tests used:
[1] = molecular target: T1, VP40-WT (Δ43, HIS-tagged), purified RNA-free monomer/dimer (UniProt Q05128 44-326)
[2] = molecular target: T1, VP40-WT (Δ43, HIS-tagged), purified …; experiment: blue native gel
[3] = molecular target: T1, VP40-WT (Δ43, HIS-tagged), purified …; experiment: 30 mM NaCl
[4] = molecular target: T1, VP40-WT (Δ43, HIS-tagged), purified …; experiment: native MS

Binder | binding result [1] | further results
TACATTCCCAGCCTTTGTAGTGTTTTCGCCAAGCA (ssDNA) [HSP DNA] | binds | 
AAAAAAAAAAAAAAAAAAAAAAAAAAAAAAAAAAAA (ssDNA) [A36 DNA] |  | binding result [2]: no binding
UACAUUCCCAGCCUUUGUAGUGUUUUCGCCAAGCA (ssRNA) [HSP RNA] |  | binding result [3]: binds
TAAAATAATTTTATTGAAT (ssDNA) [S2R DNA] |  | binding result [4]: binds
AGGGG (ssDNA) [AGGGG DNA] | binds | 
CAGCCTTTGTAGTGTTTT (ssDNA) [HSP18 DNA] | binds | 
